Assay [1] deals with HLA-C*07:02. Nature of the assay: IEDB peptide-MHC binding, purified MHC/direct/fluorescence; filed as Kd, often an IC50 or EC50 that approximates it; ≥ and ≤ were set here for values at or beyond the usual limits of such assays.
The target of assay [2] is HLA-B*51:01. Described as above. The following applies: source organism: Baboon gamma-herpesvirus.
Assay [3] deals with HLA-B*07:02. The experiment in a line: IEDB peptide-MHC binding, purified MHC/competitive/fluorescence; filed as Kd, often an IC50 or EC50 that approximates it; ≥ and ≤ were set here for values at or beyond the usual limits of such assays.
Assay [4] deals with HLA-C*03:03. The experiment in a line: IEDB peptide-MHC binding, purified MHC/direct/fluorescence; filed as Kd, often an IC50 or EC50 that approximates it; ≥ and ≤ were set here for values at or beyond the usual limits of such assays.
Assay [5] deals with HLA-A*02:01. Described as above.
Assay [6] has as its target HLA-A*69:01. The description is as above.
Assay [7] concerns the target HLA-A*02:03. The description is as above. The note with it: source organism: Variola virus.
In assay [8] the target is HLA-A*31:01. Nature of the assay: IEDB peptide-MHC binding, purified MHC/competitive/fluorescence; filed as Kd, often an IC50 or EC50 that approximates it; ≥ and ≤ were set here for values at or beyond the usual limits of such assays. The note with it: source organism: Variola virus.
Assay [9] addresses HLA-A*26:01. The experiment in a line: IEDB peptide-MHC binding, purified MHC/direct/fluorescence; filed as Kd, often an IC50 or EC50 that approximates it; ≥ and ≤ were set here for values at or beyond the usual limits of such assays. The following applies: source organism: Yersinia pestis.
Assay [10] concerns the target HLA-B*15:01. The description is as above. The following applies: source organism: Yersinia pestis.
The target in assay [11] is HLA-B*44:02. Described as above.
Assay [12] deals with HLA-A*11:01. The assay is described as above. The following applies: source organism: Yersinia pestis.
For assay [13], the target named is HLA-A*03:01. The assay is described as above. The note with it: source organism: Yersinia pestis.
The target in assay [14] is HLA-B*58:01. The assay is described as above. The following applies: source organism: Yersinia pestis.
For assay [15], the target named is HLA-A*31:01. The assay is described as above. The note with it: source organism: Yersinia pestis.
The target in assay [16] is HLA-B*08:01. Described as above. The following applies: source organism: Yersinia pestis.
For assay [17], the target named is HLA-A*01:01. The description is as above. The note with it: source organism: Yersinia pestis.
The target in assay [18] is HLA-B*27:05. The assay is described as above. The note with it: source organism: Yersinia pestis.
In assay [19] the target is HLA-B*35:01. The description is as above. The following applies: source organism: Yersinia pestis.
Assay [20] addresses HLA-B*07:02. The assay is described as above. The note with it: source organism: Yersinia pestis.
Assay [21] addresses HLA-B*27:03. Nature of the assay: IEDB peptide-MHC binding, purified MHC/competitive/fluorescence; filed as Kd, often an IC50 or EC50 that approximates it; ≥ and ≤ were set here for values at or beyond the usual limits of such assays. The following applies: source organism: Bacillus anthracis str. A0488.
The target of assay [22] is HLA-A*26:01. Described as above. The note with it: source organism: Bacillus anthracis str. A0488.
The target of assay [23] is HLA-B*15:01. The assay is described as above. The following applies: source organism: Bacillus anthracis str. A0488.
Assay [24] addresses HLA-B*39:01. The description is as above. The note with it: source organism: Bacillus anthracis str. A0488.
The target of assay [25] is HLA-A*24:03. The assay is described as above. The note with it: source organism: Bacillus anthracis str. A0488.
The target of assay [26] is HLA-A*02:11. Described as above. The following applies: source organism: Bacillus anthracis str. A0488.
In assay [27] the target is HLA-A*02:01. The description is as above. The following applies: source organism: Bacillus anthracis str. A0488.
For assay [28], the target named is HLA-B*57:01. The description is as above. The following applies: source organism: Bacillus anthracis str. A0488.
For assay [29], the target named is HLA-A*03:01. The description is as above. The note with it: source organism: Bacillus anthracis str. A0488.
Assay [30] addresses HLA-A*29:02. Described as above. The note with it: source organism: Bacillus anthracis str. A0488.
The target in assay [31] is HLA-B*51:01. Described as above. The following applies: source organism: Bacillus anthracis str. A0488.
Assay [32] deals with HLA-A*23:01. Described as above. The note with it: source organism: Bacillus anthracis str. A0488.
The target of assay [33] is HLA-B*46:01. The assay is described as above. The note with it: source organism: Bacillus anthracis str. A0488.
The target of assay [34] is HLA-A*02:03. The assay is described as above. The following applies: source organism: Bacillus anthracis str. A0488.
Assay [35] has as its target HLA-A*02:19. The assay is described as above. The following applies: source organism: Bacillus anthracis str. A0488.
For assay [36], the target named is HLA-B*18:01. The assay is described as above. The following applies: source organism: Bacillus anthracis str. A0488.
Assay [37] deals with HLA-B*40:01. The experiment in a line: IEDB peptide-MHC binding, purified MHC/direct/fluorescence; filed as Kd, often an IC50 or EC50 that approximates it; ≥ and ≤ were set here for values at or beyond the usual limits of such assays. The following applies: source organism: Influenza A virus (A/Turkey/MO/24093/99(H1N2)).
The target in assay [38] is HLA-B*18:01. The assay is described as above. The following applies: source organism: Influenza A virus (A/Turkey/MO/24093/99(H1N2)).
The target of assay [39] is HLA-B*83:01. The experiment in a line: IEDB peptide-MHC binding, purified MHC/competitive/fluorescence; filed as Kd, often an IC50 or EC50 that approximates it; ≥ and ≤ were set here for values at or beyond the usual limits of such assays. The note with it: source organism: Influenza A virus (A/Fort Monmouth/1/1947-mouse adapted(H1N1)).
Assay [40] concerns the target HLA-B*45:06. The description is as above. The following applies: source organism: Influenza A virus (A/Fort Monmouth/1/1947-mouse adapted(H1N1)).
Assay [41] deals with HLA-B*15:42. The description is as above. The following applies: source organism: Influenza A virus (A/Fort Monmouth/1/1947-mouse adapted(H1N1)).
The target of assay [42] is HLA-A*68:02. Described as above. The following applies: source organism: Human immunodeficiency virus 1.
[43] abbreviates: source organism: Camelpox virus CMS.
The mark [44] stands for this setting: source organism: Yersinia pestis.
[45] abbreviates: source organism: Marburg virus - Musoke, Kenya, 1980.

By Kd is commonly meant the free concentration of one partner at which half of the binding sites on the other are occupied at equilibrium, for simple one-to-one binding. The sequence FYYNAFHWA registered an equilibrium dissociation constant (Kd) in [1] (source organism: Homo sapiens) of 0.813 µM. This lies in the sub-micromolar range.

For VPGSETMCY, the dissociation constant Kd in assay [2] and in [3] (source organism: human gammaherpesvirus 4) was at least 20 µM in each case.

The sequence PPKYTPRPA returned a dissociation constant Kd in assay [3] (source organism: Escherichia coli 536) of at least 20 µM.

As for HMIDKLFYV, the equilibrium dissociation constant (Kd) in [4] (source organism: Variola virus) was 787 nM; in assay [5] (setting [43]), at most 1 nM; in assay [6] (setting [43]), 2 nM; in assay [7], at most 1 nM; in assay [8], 21.5 nM.

Take YGIPFPGSL: the equilibrium dissociation constant (Kd) was at least 20 µM in assay [9]; at least 20 µM in assay [10]; at most 1 nM in assay [4] (source organism: Yersinia pestis Nepal516); at least 20 µM in assay [11] (setting [44]); at least 20 µM in assay [12]; 14300 nM in assay [5] (setting [44]). For the same sequence, the Kd is at least 20 µM in [13]; at least 20 µM in assay [14]; at least 20 µM in assay [15]; at least 20000 nM in assay [6] (setting [44]); at least 20 µM in [16]; at least 20 µM in assay [17]. In addition, the Kd in assay [18] was at least 20 µM; in assay [19], 120 nM; in assay [20], 9.76 µM.

Sequence VAYHFHEPL gave a Kd in assay [4] (source organism: Mycobacterium tuberculosis variant bovis BCG str. Pasteur 1173P2) of at most 1 nM.

As for KLWASFFQG, the dissociation constant Kd is at least 20 µM in [21]; at least 20 µM in [22]; at least 20 µM in assay [23]; at least 20 µM in assay [24]; at least 20 µM in assay [25]; 2.5 nM in [26]. Also, the dissociation constant Kd in assay [27] is 104 nM; in [28], at least 20 µM; in assay [29] it was at least 20 µM; in [30] it was at least 20 µM; in assay [31], at least 20 µM; in [32] it was at least 20 µM. Also, the Kd in assay [33], in assay [34], in assay [35] and in [36] was at least 20 µM throughout.

In assay [4] (source organism: Leishmania donovani), DAMENPLSL displayed a dissociation constant (Kd) of 625 nM.

As to MQIRGFVYF, the dissociation constant Kd in assay [37] was at least 20 µM; in assay [11] (source organism: Influenza A virus (A/Turkey/MO/24093/99(H1N2))), at least 20 µM; in assay [38], 119 nM; in assay [1] (source organism: Influenza A virus (A/Fort Monmouth/1/1947-mouse adapted(H1N1))), at least 20 µM; in assay [39], at least 5 µM; in [40], at least 5 µM. In assay [41], this sequence displayed a dissociation constant (Kd) of at least 5 µM.

Take WLDSVIQYL: the dissociation constant Kd in [4] (source organism: Orthomarburgvirus marburgense) is 240 nM; in assay [5] (setting [45]), 143 nM; in assay [6] (setting [45]), 963 nM.

Turning to LYNTVAVLY, the dissociation constant (Kd) in assay [1] (source organism: Human immunodeficiency virus 1) and in assay [42] was at least 20 µM throughout.

Source of the values: the Immune Epitope Database (IEDB).
